# Measured values reported in IntAct's records for PubMed 17721446.
# B1: DNA repair protein RAD9 (Saccharomyces cerevisiae), P14737 (parent)
# chain: MSGQLVQWKSSPDRVTQSAIKEALHSPLADGDMNEMNVPVDPLENKVNSTNIIEGSPKANPNPVKFMNTSEIFQKSLGLLDESPRHDDELNIEVGDNDRPNANILHNERTPDLDRIANFFKSNRTPGKENLLTKYQSSDLEDTPLMLRKKMTFQTPTDPLEQKTFKKLKSDTGFCYYGEQNDGEENASLEVTEADATFVQMAERSADNYDCALEGIVTPKRYKDELSKSGGMQDERVQKTQIMISAESPNSISSYDKNKITGNGRTTRNVNKVFNNNEDNIGAIEEKNPVKKKSENYSSDDLRERNNQIIQSNESEEINELEKNLNVSGRENDVNNLDIDINSAVSGTPSRNNAEEEMYSSESVNNREPSKKWIFRYSKDKTENNSNRSTQIVNNPRTQEMPLDSISIDTQPLSKSFNTETNNELETQIIVSSLSQGISAQKGPVFHSTGQTEEIKTQIINSPEQNALNATFETPVTLSRINFEPILEVPETSSPSKNTMSKPSNSSPIPKEKDTFNIHEREVETNNVFSNDIQNSSNAATRDDIIIAGSSDFNEQKEITDRIYLQLSGKQISDSGSDETERMSPNELDTKKESTIMSEVELTQELPEVEEQQDLQTSPKKLVVEEETLMEIKKSKGNSLQLHDDNKECNSDKQDGTESLDVALIEHESKGQSSELQKNLMQLFPSESQEIIQNRRTIKRRQKDTIEIGEEEENRSTKTSPTKHLKRNSDLDAASIKREPSCSITIQTGETGSGKDSKEQSYVFPEGIRTADNSFLSKDDIIFGNAVWCQYTWNYKFYPGILLEVDTNQDGCWIYFETGRSLTKDEDIYYLDIRIGDAVTFDGNEYVVVGLECRSHDLNIIRCIRGYDTVHLKKKNASGLLGKRTLIKALSSISLDLSEWAKRAKIILEDNEKNKGDAYRYLRHPIRGRKSMTNVLSPKKHTDDEKDINTHTEVYNNEIESSSEKKEIVKKDSRDALAEHAGAPSLLFSSGEIRTGNVFDKCIFVLTSLFENREELRQTIESQGGTVIESGFSTLFNFTHPLAKSLVNKGNTDNIRELALKLAWKPHSLFADCRFACLITKRHLRSLKYLETLALGWPTLHWKFISACIEKKRIVPHLIYQYLLPSGESFRLSLDSPSKGGIIKSNNIFSFYTQFLRGSNLRDQICGVKKMLNDYIVIVWGRSELDSFVKFAFACLSAGRMLTIDLPNIDVDDTEPLLNALDSLVPRIGSELSNRKLKFLIYANENNGKSQMKLLERLRSQISLKFKKFNYIFHTESKEWLIQTIINEDTGFHDDITDNDIYNTISEVR
# Variants of: B1
# Details: with h2a1_yeast HTA1, P04911
# Sequence of h2a1_yeast HTA1, P04911 (P04911 whole entry): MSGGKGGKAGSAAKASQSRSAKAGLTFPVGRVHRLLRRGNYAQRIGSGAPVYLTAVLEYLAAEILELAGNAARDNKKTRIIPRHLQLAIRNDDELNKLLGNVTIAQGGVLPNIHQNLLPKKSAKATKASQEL
row,Variant,effect of a mutation on the interaction
1,K1088M,disrupting interaction
